The source of these data is article PMC2528196.

Substrate in the series “purified protein”: Nc1ncnc2c1ncn2[C@@H]1O[C@H](COP(=O)(O)OP(=O)(O)OP(=O)(O)O)[C@@H](O)[C@H]1O
Kind of series: purified protein. To be noted: saturating 56-mer ssDNA, 37°C, pH 7.6, 7 mM MgCl2, 100 mM NaCl.

Another series deals with Srs2 (Saccharomyces cerevisiae, UniProt P12954 1-1174). Kind of series: EMSA. On the technique in general: Mobility shift assays separate free from complexed probe on a gel.

B1: Srs2 (Saccharomyces cerevisiae S288C) (protein)
chain: MSSNNDLWLHLVSQLNTQQRAAALFDYTRGLQVIAGPGTGKTKVLTSRVAYLILHHHIHPRDIIVTTFTNKAANEMKERLQEMLRGAGVNISELLIGTFHSICLKILYRFGHLVDLQKDWRIIDEKEIDVILDDMIEKVPDQIRDYASSITRKVNLCMPSKNGDEWTIHPKLIKKQISKLKSNAILPEEYILDSNHDAALGYFYQIYQSELSKKNTLDFDDLLMYTFRLLTRVRVLSNIKHVLVDEFQDTNGIQLDLMFLFAKGNHHLSRGMTIVGDPDQSIYAFRNALAHNFLEMGRKCPIEYSTIILVENYRSSQKILNTSEILITQQNKGRQNRAPLRAQFDLDFPPVYMNFPAYFLEAPSLVRELLYLKALPNLFTFNDFAILVRQRRQIKRIESALIEHRIPYKIIRGHSFWDSKETRAMLNLLKLIFSPNDKHAILASLLYPARGLGPATGEKIKNALDTLATDVSCFQILKDISSKKIMLDIPTKGRSVIADFISMIENCQLLLQSTLLGGLSDLFDKLYELSGLKYEYLYKDGKKKNDQLEKSEPNLLNARHKNIELLKNYFLALLSKSESSDKEKNEAIKAATDEAEPIENKVITPKEYLRNFFNSLSLHSDAAEEEESESNKDAKIKREKNGFVTISTIHGAKGLEWPVVFIPGCEEGIIPCVFNDDKKDESEEDEEEDQENSKKDASPKKTRVLSVEDSIDEERRMFFVAQTRAKYLLYLSNTVTVEDVDRPRIASRFLTTDLIKAMSDSQKLFESTNSIKKLYRILNKKPPAEDDKLFSLDQLRKDYNQFIENRRERMIWQGIQMNDVYGIQLSRNKLLGSVSDFTSAADQLRLETQNSIFPQKKLIEKSRPSKINGNYAPKSRVKSPEKRYAPETTSFHSPTKKKVYAPQYVSTTNVPSRQEFHSSTGKNIPFLRREDRSITDISPRSSTRSLKGASPNKTSHMSDDLMRPSPTRKDKVTRNIHFATAGTFRIETQSNVDELHPPEYSNKSGQSLTSSEFSGFSSACSNSDQPTNLIEDINNELDLSDEELLNDISIERRRELLGSKKTKKIKPKTRNRKSKRGDKVKVEEVIDLKSEFEEDDSRNTTAAELLHNPDDTTVDNRPIISNAKFLADAAMKKTQKFSKKVKNEPASSQMDIFSQLSRAKKKSKLNNGEIIVID
Turning to B1, in “purified protein”, the Michaelis constant (Km) (usually the concentration of substrate that gives half-maximal velocity) came to 143 µM; the turnover number (kcat) (commonly the number of substrate molecules converted per active site and unit of time at saturation) came to 55.3 s⁻¹.

B2: forked DNA P1/P2 (dsDNA)
DNA 1: AGAAGGTTTCGAATCAGAGGTAGGTGCCCGGCCTCCAACTTGCCGTATTCCTGGT
DNA 2: ACCAGGAATACGGCAAGTTGGAGGCCGGGCTGGATGGAGACTAAGCTTTGGAAGT
As to B2, the binding result with Srs2 is “binds”.
